The target in assay [1] is T1, human MYCT1 (hMYCT1) (human, UniProt Q8N699 1-235, limits assumed).
T1 construct: also called MYC Target 1
T1 sequence: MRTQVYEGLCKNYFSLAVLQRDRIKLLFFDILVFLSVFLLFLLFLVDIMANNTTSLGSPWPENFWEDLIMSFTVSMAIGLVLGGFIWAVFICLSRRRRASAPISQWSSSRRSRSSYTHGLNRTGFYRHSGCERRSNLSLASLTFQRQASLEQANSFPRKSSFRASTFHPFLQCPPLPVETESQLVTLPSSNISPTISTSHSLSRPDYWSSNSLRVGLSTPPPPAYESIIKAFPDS
Kind of assay: SPR (Biacore 8K), antibody captured via anti-human Fc IgG, MYCT1 as analyte, steady-state affinity model.

The target of assay [2] is T1, human MYCT1 (hMYCT1). Described as above. The source holds these as a separate data set.
In assay [3] the target is T1, human MYCT1 (hMYCT1). Kind of assay: SPR full kinetics (Biacore 8K), antibody captured via anti-human Fc IgG, MYCT1 as analyte, steady-state affinity model.
The target in assay [4] is T1, human MYCT1 (hMYCT1). Kind of assay: SPR koff ranking, single curve, antibody captured via anti-human Fc IgG, 10 nM MYCT1 as analyte, 1:1 binding model.
Assay [5] deals with T1, human MYCT1 (hMYCT1). Briefly: SPR koff ranking, 1:1 binding model.
Assay [6] has as its target T1, human MYCT1 (hMYCT1). Briefly: SPR full kinetics, multicycle, antibody captured via anti-human Fc IgG, MYCT1 0.625-10 nM as analyte, 1:1 binding model.

Our source for the Kd, koff and kon values is EP4737482A1 (Atheon Bio, Inc., dated 2026).

Residue numbers refer to the chain shown, from its start. Bounds are passed on as bounds.

B1: 2B4 parent antibody (antibody, V domains shown)
VH: EVQLQQSGPELVKPGASVKMSCKASGYTFTDYNMHWVRQSHGKGLEWIGYINPNNGGSSYNRKFKGKATLTVNKSSRSASMELRSLTSEDSAVYYCATRFDVWGTGTTVTVSS
VL: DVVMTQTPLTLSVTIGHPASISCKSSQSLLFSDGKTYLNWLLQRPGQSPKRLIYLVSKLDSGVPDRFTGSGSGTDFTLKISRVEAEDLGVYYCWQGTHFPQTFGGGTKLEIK
notes: Mouse parental variable domains; also called parent antibody (2B4); 2B4 clone
Consider B1, for which the Kd with human MYCT1 (hMYCT1) [1] came out at 181 nM; with human MYCT1 (hMYCT1) [2], 273 nM; in the assay with human MYCT1 (hMYCT1) [3], 281 nM.

B2: 2B4-p3-uIgG1K (antibody, V domains shown)
VH: B1 VH with G56A
VL: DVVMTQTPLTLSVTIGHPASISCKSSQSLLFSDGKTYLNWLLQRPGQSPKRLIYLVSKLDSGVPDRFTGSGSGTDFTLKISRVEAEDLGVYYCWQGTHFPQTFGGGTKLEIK
Consider B2, for which the Kd with human MYCT1 (hMYCT1) [2] was 270 nM.

B3: 2B4-z14-uIgG1K (antibody, V domains shown)
VH: B1 VH
VL: DVVMTQSPLSLPVTLGQPASISCKSSQSLLFSDGKTYLNWLQQRPGQSPRRLIYLVSKLDSGVPDRFSGSGSGTDFTLKISRVEAEDVGVYYCWQGTHFPQTFGGGTKVEIK
The molecule B3 yielded a Kd in the assay with human MYCT1 (hMYCT1) [1] of 203 nM. That is a sub-micromolar value.

B4: 2B4-p1-uIgG1K (antibody, V domains shown)
VH: B1 VH with N55Q
VL: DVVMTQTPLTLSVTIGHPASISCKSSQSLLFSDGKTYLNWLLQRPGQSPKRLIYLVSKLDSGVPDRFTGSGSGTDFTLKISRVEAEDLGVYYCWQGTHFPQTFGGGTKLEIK
Consider B4, for which the Kd with human MYCT1 (hMYCT1) [2] was found to be 264 nM.

B5: 2B4-p6-uIgG1K (antibody, V domains shown)
VH: B1 VH
VL: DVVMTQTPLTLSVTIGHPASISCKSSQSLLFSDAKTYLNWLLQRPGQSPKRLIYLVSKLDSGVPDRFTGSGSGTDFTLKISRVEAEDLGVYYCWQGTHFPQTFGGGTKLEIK
Molecule B5 gave a Kd in the assay with human MYCT1 (hMYCT1) [2] of 288 nM. This Kd and that of the molecule before are within 1.5-fold of each other.

B6: 2B4-p2-uIgG1K (antibody, V domains shown)
VH: B1 VH with N55S
VL: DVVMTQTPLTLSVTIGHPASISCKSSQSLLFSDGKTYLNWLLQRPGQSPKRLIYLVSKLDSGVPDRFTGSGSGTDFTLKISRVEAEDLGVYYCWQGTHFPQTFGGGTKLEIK
In the case of B6, in the assay with human MYCT1 (hMYCT1) [2], the equilibrium dissociation constant (Kd) was 224 nM.

B7: 2B4-p4-uIgG1K (antibody, V domains shown)
VH: B1 VH
VL: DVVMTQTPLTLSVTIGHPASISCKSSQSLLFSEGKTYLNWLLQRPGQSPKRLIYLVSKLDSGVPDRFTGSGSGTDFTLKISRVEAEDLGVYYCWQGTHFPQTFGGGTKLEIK
For the molecule B7, in the assay with human MYCT1 (hMYCT1) [2], the Kd was greater than 500 nM.

B8: 2B4-z2-uIgG1K (antibody, V domains shown)
VH: QVQLVQSGAEVKKPGASVKVSCKASGYTFTDYNMHWVRQAPGQGLEWMGYINPNNGGSSYNRKFKGRVTMTTDTSTSTAYMELRSLRSDDTAVYYCATRFDVWGQGTTVTVSS
VL: B3 VL
In turn, B8 returned a dissociation constant (Kd) with human MYCT1 (hMYCT1) [1] of 368 nM. This counts as sub-micromolar.

B9: 2B4-z15-uIgG1K (antibody, V domains shown)
VH: B8 VH with V20M, M48I, M70L, T72V, T74K, S77R
VL: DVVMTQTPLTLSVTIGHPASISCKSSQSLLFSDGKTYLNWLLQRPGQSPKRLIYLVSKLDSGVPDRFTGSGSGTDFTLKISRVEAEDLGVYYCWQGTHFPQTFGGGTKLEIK
In the assay with human MYCT1 (hMYCT1) [1], B9 had a Kd of 617 nM. This Kd lies about 1.7-fold higher than the previous one.

B10: 2B4-z8-p7-uIgG1K (antibody, V domains shown)
VH: B8 VH with M48I, N55S
VL: B3 VL with G34A
With B10, in the assay with human MYCT1 (hMYCT1) [3], the Kd is 586 nM.

B11: 2B4-z8-uIgG1K (antibody, V domains shown)
VH: B8 VH with M48I
VL: B3 VL
Molecule B11 came in with an equilibrium dissociation constant (Kd) with human MYCT1 (hMYCT1) [1] of 321 nM. That is a sub-micromolar value.

B12: 2B4-z12-uIgG1K (antibody, V domains shown)
VH: B8 VH with V20M, M70L, T72V, T74K, S77R
VL: B3 VL
With B12, in the assay with human MYCT1 (hMYCT1) [1], the Kd was 428 nM. This Kd and that of the molecule before are within 1.5-fold of each other.

B13: 2B4-z11-uIgG1K (antibody, V domains shown)
VH: B8 VH with M70L, T72V, T74K, S77R
VL: B3 VL
For B13, the Kd in the assay with human MYCT1 (hMYCT1) [1] was 449 nM.

B14: 2B4-z5-uIgG1K (antibody, V domains shown)
VH: B8 VH with T74K
VL: B3 VL
The molecule B14 yielded a Kd with human MYCT1 (hMYCT1) [1] of 351 nM. This Kd and that of the molecule before are within 1.5-fold of each other.

B15: 2B4-z7-uIgG1K (antibody, V domains shown)
VH: B8 VH with V20M
VL: B3 VL
In the assay with human MYCT1 (hMYCT1) [1], B15 registered a Kd of 382 nM.

B16: 2B4-z10-uIgG1K (antibody, V domains shown)
VH: B8 VH with T72V, T74K, S77R
VL: B3 VL
In turn, B16 gave a Kd with human MYCT1 (hMYCT1) [1] of 456 nM. The Kd values of the last two molecules are within 1.5-fold of each other.

B17: 2B4-z6-uIgG1K (antibody, V domains shown)
VH: B8 VH with S77R
VL: B3 VL
In the assay with human MYCT1 (hMYCT1) [1], B17 yielded a Kd of 447 nM.

B18: 2B4-z4-uIgG1K (antibody, V domains shown)
VH: B8 VH with T72V
VL: B3 VL
B18 had a Kd with human MYCT1 (hMYCT1) [1] of 354 nM.

B19: 2B4-z3-uIgG1K (antibody, V domains shown)
VH: B8 VH with M70L
VL: B3 VL
In the assay with human MYCT1 (hMYCT1) [1], B19 came in with a Kd of 332 nM. The Kd values of the last two molecules are within 1.5-fold of each other.

B20: 2B4-z13-uIgG1K (antibody, V domains shown)
VH: B8 VH with V20M, M48I, M70L, T72V, T74K, S77R
VL: B3 VL
On to B20, for which binding with human MYCT1 (hMYCT1) [1] was characterised by a dissociation constant (Kd) of 443 nM.

B21: 2B4-z2-p7-uIgG1K (antibody, V domains shown)
VH: B8 VH with N55S
VL: B3 VL with G34A
In turn, B21 yielded an equilibrium dissociation constant (Kd) in the assay with human MYCT1 (hMYCT1) [3] of 484 nM.

B22: 11B6 parent antibody (antibody, V domains shown)
VH: EVQLVESGGGLVKPGGSLKLSCAASGFTFSDFGIHWVRQAPEKGLEWVGYISSGSRTIHYADTVKGRFTISRDNAKNTLFLQMTNLRSEDTAIYYCARRDWDPEWLAYWGQGTLVTISA
VL: DVVMTQAPLSLPVSLGDQASISCRSSLSLVHSNGHTYLHWYLQKPGQSPKLLIYKVSNRFSGVPDRFSGSGSGTDFTLKIRRVEAEDLGVYFCSQSTHVPFTFGSGTKLEIK
notes: Mouse parental variable domains; also called parent antibody (11B6); 11B6 clone
The molecule B22 came in with a koff with human MYCT1 (hMYCT1) [4] of 0.00496 s⁻¹. In the assay with human MYCT1 (hMYCT1) [5], the koff stood at 0.00456 s⁻¹. In the assay with human MYCT1 (hMYCT1) [6], this molecule displayed a Kd of 1.2 nM, a koff of 0.00411 s⁻¹ and an association rate constant (kon) of 3.44e+06 M⁻¹ s⁻¹.

B23: 11B6-z10-p3-uIgG1K (antibody, V domains shown)
VH: B22 VH with K19R, E42G, T78S, F80Y, T84N, N85S, S88A, I93V, I117V, A119S
VL: B22 VL with A7S, S14T, L15P, D17E, Q18P, G34A, K50Q, R81S, L88V, S105Q
For the molecule B23, in the assay with human MYCT1 (hMYCT1) [6], binding was characterised by a dissociation constant (Kd) of 3.34 nM, the off-rate (koff) was determined as 0.0122 s⁻¹ and the kon came to 3.65e+06 M⁻¹ s⁻¹.

B24: 11B6-z12-uIgG1K (antibody, V domains shown)
VH: B22 VH with K19R, E42G, T78S, F80Y, T84N, N85S, S88A, I117V, A119S
VL: B22 VL with A7S, S14T, L15P, D17E, Q18P, L88V, S105Q
The molecule B24 registered a koff with human MYCT1 (hMYCT1) [4] of 0.00838 s⁻¹.

B25: 11B6-z13-uIgG1K (antibody, V domains shown)
VH: B22 VH with K19R, E42G, T84N, N85S, S88A, I117V, A119S
VL: B22 VL with A7S, S14T, L15P, D17E, Q18P, L88V, S105Q
In turn, B25 displayed a koff in the assay with human MYCT1 (hMYCT1) [4] of 0.00838 s⁻¹.

B26: 11B6-z16-p3-uIgG1K (antibody, V domains shown)
VH: B22 VH with K19R, E42G, T78S, F80Y, T84N, N85S, S88A, I93V, I117V, A119S
VL: B22 VL with V2I, A7S, S14T, L15P, D17E, Q18P, G34A, R81S, L88V, S105Q
notes: also called hzATN001; ATN001
In the assay with human MYCT1 (hMYCT1) [6], B26 registered a Kd of 2.53 nM, a koff of 0.00841 s⁻¹ and a kon of 3.32e+06 M⁻¹ s⁻¹.

B27: 11B6-z12-p3-uIgG1K (antibody, V domains shown)
VH: B22 VH with K19R, E42G, T78S, F80Y, T84N, N85S, S88A, I117V, A119S
VL: B22 VL with A7S, S14T, L15P, D17E, Q18P, G34A, L88V, S105Q
With B27, in the assay with human MYCT1 (hMYCT1) [6], binding was characterised by a dissociation constant (Kd) of 2.35 nM, the koff was found to be 0.00786 s⁻¹ and the on-rate constant (kon) was 3.35e+06 M⁻¹ s⁻¹.
